Assays:
BTAG 585B1-868 hiPSCs = test: Induction of iMeLCs from hiPSCs having induction capacity into BTAG positive cells (FACS of BTAG(+) cells); assay type: cell-based, human; details: added during induction of iMeLC; FIG. 10D, 10E
Method: (§1) Initial mesoderm-like cells (iMeLCs) were induced by seeding hiPSCs maintained in StemFit™ in a 12 well plate coated with human plasma fibronectin (Millipore, FC010) at 1.0-2.0×10^5 cells per well in GK15 medium [GMEM containing 15% KSR, 0.1 mM NEAA, 2 mM L-glutamine, 1 mM sodium pyruvate and 0.1 mM 2-mercaptoethanol (Life Technologies)] containing 50 ng/ml activin A, 3 μM CHIR99021 and 10 μM ROCK inhibitor (Y-27632; Wako Pure Chemical Industries). The hiPSCs were induced by seeding in a low-cell-binding V-bottom 96 wellplate (Thermo, 81100574) at 3.0×10^3 cells per well in GK15 added with 1000 U/ml LlF (Millipore, #LIF1005), 200 ng/ml BMP 4,100 ng/ml SCF (R&D Systems, 455-MC), 50 ng/ml EGF (R&D Systems, 236-EG), and 10 μM ROCK inhibitor. For investigation of conditions and induction of iMeLCs or hPGCLC, PD173074 (StemGent, #04-0008) or LDN193189 (StemGent, #04-0074) was respectively added. Other than the above, WNT3A (R&D Systems, 5036-WN) was used instead of CHIR99021, and BMP2 (R&D Systems, 355-BM), BMP7 (R&D Systems, 354-BP), or BMP8A (R&D Systems, 1073-BP) was used instead of BMP4.
(§2) Floating aggregates containing hPGCLCs were separated by treating with 0.05% Trypsin-EDTA/PBS at 37° C. for 10 min. […] The collected cells were suspended in FACS buffer (0.1% BSA in PBS) and analyzed by a flow cytometer (ARIA III; BD Biosciences). […]

iMeLCs = test: Induction of BTAG positive cells (hPGCLCs) from iMeLCs in floating aggregates; assay type: cell-based, human; details: combination of BMP4, LIF, SCF and EGF changed; FIG. 11A-D
Method: as §1, §2

B1: BMP4: bone morphogenetic 4 (protein, UniProt P12644 293-408, looked up)
Bone morphogenetic protein 4: SPKHHSQRARKKNKNCRRHSLYVDFSDVGWNDWIVAPPGYQAFYCHGDCPFPLADHLNSTNHAIVQTLVNSVNSSIPKACCVPTELSAISMLYLDEYDKVVLKNYQEMVVEGCGCR
Q: With B1 as the molecule, how does the “effect of signaling on iMeLCs induction” value (BTAG 585B1-868 hiPSCs) read?
A: acts negatively

Q: And the “role in induction of BTAG positive cells from iMeLCs” value (iMeLCs)?
A: essential

Reference: US10563171B2, “Method for inducing differentiation of pluripotent stem cells into germ cells” (Kyoto University, priority 2015, dated 2020)
